Results taken from PMC3626704 (BMC Biochemistry, 2013).

What was measured:
5-Helix = target: T1, 5-Helix (HIV-1 group M subtype B, HXB2 (gp41 …, stabilised)); experiment: ELISA; conditions: both partners purified
T1 construct: also called designed protein based on HIV-1 gp41

6-Helix-Fd = target: T2, 6-Helix-Fd (HIV-1 gp41 (HXB2-like, printed sequence), stabilised); experiment: ELISA; conditions: both partners purified
T2 construct: also called post-fusion six-helix bundle mimic
T2 chain: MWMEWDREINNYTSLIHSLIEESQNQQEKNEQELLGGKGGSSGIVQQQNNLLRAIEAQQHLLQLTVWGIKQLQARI

Row | Binder | IC50 (5-Helix) [nM] | IC50 (6-Helix-Fd) [nM]
1 | D5 scFv, purified monovalent (scFv, V domains shown) VH: QVQLVQSGAEVRKPGASVKVSCKASGDTFSSYAISWVRQAPGQGLEWMGGIIPIFGTANYAQAFQGRVTITANESTSTAYMELSSLRSEDTAIYYCARDNPTLLGSDYWGAGTLVTVSS VL: DIQMTQSPSTLSASIGDRVTITCRASEGIYHWLAWYQQKPGKAPKLLIYKASSLASGAPSRFSGSGSGTDFTLTISSLQPDDFATYYCQQYSNYPLTFGGGTKLEIK | 7.3 | 290
2 | 25B6 scFv, purified monovalent (scFv, V domains shown) VH: QVQLVQSGAEVRKPGASVKVSCKASGDTFSSYAISWVRQAPGQGLEWMGGIIPIFGTANYAQAFQGRVTITANESTSTAYMELSSLRSEDTAIYYCARDNPTLLGSDYWGAGTLVTVSS VL: DIQMTQSPSTLSASIGDRVTITCRASENIRSGLAWYQQKPGKAPKLLIYRASRLASGAPSRFSGSGSGTDFTLTISSLQPDDFATYYCQQYDDYPHTFGGGTKLEIK | 0.6 | 94
3 | 25A12 scFv, purified monovalent (scFv, V domains shown) VH: QVQLVQSGAEVRKPGASVKVSCKASGDTFSSYAISWVRQAPGQGLEWMGGIIPIFGTANYAQAFQGRVTITANESTSTAYMELSSLRSEDTAIYYCARDNPTLLGSDYWGAGTLVTVSS VL: DIQMTQSPSTLSASIGDRVTITCRASEGIHRYLAWYQQKPGKAPKLLIYHASRLASGAPSRFSGSGSGTDFTLTISSLQPDDFATYYCQQRANYPYTFGGGTKLEIK | 34 | 280
4 | 25A10 scFv, purified monovalent (scFv, V domains shown) VH: QVQLVQSGAEVRKPGASVKVSCKASGDTFSSYAISWVRQAPGQGLEWMGGIIPIFGTANYAQAFQGRVTITANESTSTAYMELSSLRSEDTAIYYCARDNPTLLGSDYWGAGTLVTVSS VL: DIQMTQSPSTLSASIGDRVTITCRASESISHNLAWYQQKPGKAPKLLISNASRLASGAPSRFSGSGSGTDFTLTISSLQPDDFATYYCQQYSNYPLTFGGGTKLEIK | 5.4 | ~500
